Here are results for 1 molecule from PMC11217422, “Proton-pumping photoreceptor controls expression of ABC transporter by regulating transcription factor through light” (Communications Biology, 2024).

This test concerns the target T1, G. violaceus transcriptional regulator, with His tag (Gloeobacter violaceus PCC 7421).
T1 construct: GvTcR, helix-turn-helix type transcriptional regulator of Gloeobacter violaceus PCC 7421, NCBI WP_011141437.1; gene amplified from genomic DNA with the printed primers (forward from the start codon, reverse adds His6 before the stop codon); also called GvTcR; HTH transcription factor protein; source: E. coli UT5600, purified (Ni-NTA); also in cell lysate; also co-expressed with GR from one pKA001 …
The experiment in a line: ITC; MicroCal ITC200, room temperature, sonication buffer (150 mM NaCl, 50 mM Tris-HCl, pH 7.0) with 0.02% DDM; which protein was titrated is not told. The note with it: both partners purified.

B1: GR R69A/K141A double mutant (natural protein)
chain: MLMTVFSSAPELALLGSTFAQVDPSNLSVSDSLTYGQFNLVYNAFSFAIAAMFASALFFFSAQALVGQAYRLALLVSAIVVSIAGYHYFRIFNSWDAAYVLENGVYSLTSEKFNDAYRYVDWLLTVPLLLVETVAVLTLPAAEARPLLIKLTVASVLMIATGYPGEISDDITTRIIWGTVSTIPFAYILYVLWVELSRSLVRQPAAVQTLVRNMRWLLLLSWGVYPIAYLLPMLGVSGTSAAVGVQVGYTIADVLAKPVFGLLVFAIALVKTKADQESSEPHAAIGAAANKSGGSLIS
modifications: retinal chromophore bound by a Schiff base (residue not given)
With B1, the Kd was determined as 6.2 ± 3.15 mM.
